Source: publication PMC7556464, “4CMenB vaccine induces elite cross-protective human antibodies that compete with human factor H for binding to meningococcal fHbp” (PLoS Pathogens, 2020)
Substitutions are numbered along the chain they refer to.

B1: human anti-fHbp mAb 4B10 (antibody, V domains shown)
VH: EVQLVESGGGLVKPGGSLRLSCAASGFAFSTYSLHWVRQAPGKGLEWVSAITSSGSFLYYADSLKGRFTVSRDNAKNSLFLQMNSLRAGDTAVYYCARALQVEDGFPMFSGLDVWGQGTTVTVSS
VL: QTVVTQPPSVSEAPRQRVAISCSGSSSNIGDNSVSWYQQLPGKAPKLLIYDDDLLPSGVSDRFSASKSGTSASLAISGLQSEDEAEYYCAAWDDSLKGVVFGGGTKLTVL
notes: IgG1; source: Expi293, transient transfection, purified (protein G Sepharose)
B2: human anti-fHbp mAb 3B7 (antibody, V domains shown)
VH: EVQLVQSGAEVKKPGSSVKVSCKASGDTFSNYPISWVRQAPGQGLEWMGGIIPIFGTANYAQKFQGRVTITADESTSTPYMELSSLRSEDTAVYYCARGDTAMAPFDYWGQGTLVTVSS
VL: SYVLTQPPSVSVAPGKTARITCGGNSIGSKSVHWYQQKPGQAPVLVIYYDSDRPSGVPERISGSNSGNTATLTISRVEAGDEADYYCQVWDSSSDSWVFGGGTKLTVL
notes: source: Expi293, transient transfection, purified (protein G Sepharose)
B3: human anti-fHbp mAb 1E10 (antibody, V domains shown)
VH: QVQLVESGGDLVKPGGSLRLSCVASGFTFSSYTMNWVRQAPGKGLEWVSSITSSSSFTYYADSVKGRFIISRDNAKNSLSLQMNNLRVEDTATYYCARRKDSSDYDWYYYYGMDVWGLGTTVTVSS
VL: QSVVTQPPSVSAAPGQKVTISCSGSSSNIGDNYMSWYQQIPGTAPKLLIFDNDQRPSGIPDRFSASKSGTSATLDITGFQTGDEADYYCGTWDSGLSAPVFGGGTKLTVL
notes: as for B2
B4: human anti-fHbp mAb 4F9 (antibody, V domains shown)
VH: QVQLVQSGGGLVKPGGSLRLSCAASGFPFSSYYMSWIRQAPGKGLEWVSDINNSGNVKEYADFVKGRLTISRDNVKNSMYLHMNSLRVEDTAVYYCARNRGRFDVWGQGTLVTVSA
VL: EIVMTQSPGTLSLSPGETATLSCRASQMISSPFLAWYQQRRGQAPRLLIYGASTRATDTPDRFRGSGSGTDFILTISRLEPEDFAVYYCQHYDDSPFTFGQGTKLEIK
notes: as for B2
B5: human anti-fHbp mAb 4B3 (antibody, V domains shown)
VH: B4 VH
VL: B4 VL with H91Y
notes: as for B2
B6: human anti-fHbp mAb 3G7 (antibody, V domains shown)
VH: B4 VH with Q1E, V5L
VL: B4 VL with M4L, H91Y
notes: as for B2
B7: human anti-fHbp mAb 4B10 (antibody, V domains shown)
VH: B1 VH
VL: B1 VL
notes: as for B2
B8: human anti-fHbp mAb 5F12 (antibody, V domains shown)
VH: EVQLVESGGDLVKPGGSLRLSCAASGFTFSNYTMNWVRQAPGKGLEWVSSITSSSSFKYYADSVKGRFTISRDNAKNSVFLQMNSLRAEDTAIYYCARRIDSSDQDWFYYYGMDVWGLGTTVTVSS
VL: QSVLTQPPSVSAAPGQRVTISCSGSSSNIGDNYISWYQQLPGTAPKLLIYDNDQRPSGTPDRFSASKSGTSATLGVTGLQTGDEADYYCGTWDSSLNAPVFGSGTKVTVL
notes: as for B2
B9: human anti-fHbp mAb 2C8 (antibody, V domains shown)
VH: QVQLVQSGAEVKKPGSSVKVSCKASGGTVINYPISWVRQVPGQGLEWMGRLVPLFGTPNYGQKFQGRITITADKSTSAAYMELIGLKSEDTAVYYCARGDTAMAPFDYWGHGTLVTVSS
VL: QLVLTQPPSVSVAPGKTATITCGGNNVGGKTVHWYQQKPGQAPVLVMSYDSDRPSGIPERFSGSNSGNTATLTISRVEAEDEADYYCQVWHGNDDHWVFGGGTKLTVL
notes: as for B2
B10: human anti-fHbp mAb 5C6 (antibody, V domains shown)
VH: EVQLLESGGGLVQPGGSLRLSCAASGFTFSSYAMSWVRQTPGKGLEWVSAISGSGGSTYYADSVQGRFTISRDNSKNTLYLQINSLRAEDTAVYYCAKDPGFVLSSGWYYFDYWGQGTLVTVSS
VL: not shown
notes: as for B2
B11: human anti-fHbp mAb 1D1 (antibody, V domains shown)
VH: QVQLVGSGGGLVKPGGSLRLSCAASGFTFSSYTMNWVRQAPGKGLEWVSSISSSSGYIYYADSLKGRFTISRDDAKNSLFLQMNSLRAEDTAVYFCARDKVLPAPPGFYGLDVWGPGTTVTVSS
VL: QSVVTQPPSVSAAPGQKVTISCSGSSSNIEDNFVSWYQQLPGTAPKLLIYDNNQRPSGIPDRFSGSKSGTSATLGITGLQTGDEADYYCATWDNSLSARVFGGGTKLTVL
notes: as for B2
B12: human anti-fHbp mAb 3F1 (antibody, V domains shown)
VH: B11 VH with Q1E, Q3H, G6E, D74N
VL: B11 VL
notes: as for B2
B13: human anti-fHbp mAb 3B7 (antibody, V domains shown)
VH: B2 VH
VL: B2 VL
notes: as for B2
B14: human anti-fHbp mAb 2G1 (antibody, V domains shown)
VH: B3 VH
VL: B3 VL with V4L
notes: as for B2

Target: T1, factor H binding protein (fHbp) variant 1.1, recombinant (Neisseria meningitidis MC58, fHbp v1.1)
T1 construct: also called fHbp v1.1; fHbp v1; source: E. coli BL21(DE3), purified (Ni-NTA, SEC when necessary); not shown: His6, C-terminal, kept
T1 chain: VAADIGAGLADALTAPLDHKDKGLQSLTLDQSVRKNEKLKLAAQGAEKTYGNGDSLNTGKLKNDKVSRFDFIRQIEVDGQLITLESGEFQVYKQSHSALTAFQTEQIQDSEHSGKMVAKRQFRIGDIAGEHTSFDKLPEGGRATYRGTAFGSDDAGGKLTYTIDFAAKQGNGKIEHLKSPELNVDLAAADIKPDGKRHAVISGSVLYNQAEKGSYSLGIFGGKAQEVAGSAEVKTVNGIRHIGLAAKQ
Assay: SPR
Conditions: both partners purified
B1 gave a Kd of 0.296 nM. Binder B2 has a Kd of 2.6 nM.

Each binder was assayed against T2, factor H binding protein (fHbp) variant 2.16, recombinant (Neisseria meningitidis 961-5945, UniProt Q6VS19, strain) (assay: SPR). Conditions: both partners purified.
T2 construct: also called fHbp v2.16; fHbp v2; source: E. coli BL21(DE3), purified (Ni-NTA, SEC when necessary)
B2 was tested, and the Kd was 0.551 nM.

What follows are binders tested against T3, factor H binding protein (fHbp) variant 3.28, recombinant (Neisseria meningitidis M1239, fHbp v3.28, UniProt Q19KF7, strain) (assay: SPR). Conditions: both partners purified.
T3 construct: also called fHbp v3.28; fHbp v3; source: E. coli BL21(DE3), purified (Ni-NTA, SEC when necessary)
Binder B1 has a Kd of 1.67 nM. In the case of B2, the Kd is reported as 2.2 nM.

Target: T4, factor H binding protein (fHbp) variant 1.1 (Neisseria meningitidis MC58, fHbp v1.1, strain)
T4 construct: also called fHbp v1.1; fHbp v1; source: E. coli BL21(DE3), purified (Ni-NTA; SEC when necessary)
T4 chain: T1 chain
Assay: SPR
Conditions: both partners purified
With B3 the koff was 0.000657 s⁻¹ and the kon was 427000 M⁻¹ s⁻¹. B4 gave a koff of 0.00251 s⁻¹ and a kon of 3.29e+07 M⁻¹ s⁻¹. B5 showed a koff of 0.000217 s⁻¹ and a kon of 661000 M⁻¹ s⁻¹. B6 was tested, and the koff was 0.000311 s⁻¹ and the kon was 903000 M⁻¹ s⁻¹. B7 was tested, and the koff was 0.0025 s⁻¹ and the kon was 7.7e+06 M⁻¹ s⁻¹. In the case of B8, the koff is reported as 0.000846 s⁻¹ and the kon is reported as 854000 M⁻¹ s⁻¹. With B9 the koff was 0.000388 s⁻¹ and the kon was 1.16e+06 M⁻¹ s⁻¹. For B10, the koff was 0.000454 s⁻¹ and the kon was 420000 M⁻¹ s⁻¹. B11 gave a koff of 0.00154 s⁻¹ and a kon of 1.81e+06 M⁻¹ s⁻¹. B12 gave a koff of 0.000917 s⁻¹ and a kon of 885000 M⁻¹ s⁻¹. With B13 the koff was 0.00442 s⁻¹ and the kon was 1.71e+06 M⁻¹ s⁻¹.

Each binder was assayed against T5, factor H binding protein (fHbp) variant 3.28 (Neisseria meningitidis M1239, fHbp v3.28, UniProt Q19KF7, strain) (assay: SPR). Conditions: both partners purified.
T5 construct: also called fHbp v3.28; fHbp v3; source: E. coli BL21(DE3), purified (Ni-NTA; SEC when necessary)
B3 was tested, and the koff was 0.000495 s⁻¹ and the kon was 390000 M⁻¹ s⁻¹. B14 was tested, and the koff was 0.000584 s⁻¹ and the kon was 332000 M⁻¹ s⁻¹. With B4 the koff was 0.00095 s⁻¹ and the kon was 380000 M⁻¹ s⁻¹. B5 was tested, and the koff was 0.0002 s⁻¹ and the kon was 315000 M⁻¹ s⁻¹. B6 gave a koff of 0.000176 s⁻¹ and a kon of 258000 ± 0.01 M⁻¹ s⁻¹. With B7 the koff was 0.000473 s⁻¹ and the kon was 284000 M⁻¹ s⁻¹. With B8 the koff was 0.00613 s⁻¹ and the kon was 350000 M⁻¹ s⁻¹. In the case of B9, the koff is reported as 0.0002 s⁻¹ and the kon is reported as 430000 M⁻¹ s⁻¹. B10 showed a koff of 0.00071 s⁻¹ and a kon of 350000 M⁻¹ s⁻¹. For B11, the koff was 0.000642 s⁻¹ and the kon was 371000 M⁻¹ s⁻¹. For B12, the koff was 0.00063 s⁻¹ and the kon was 340000 M⁻¹ s⁻¹. B13 gave a koff of 0.00083 s⁻¹ and a kon of 382000 M⁻¹ s⁻¹.

What follows are binders tested against T6, factor H binding protein (fHbp) variant 2.16 (Neisseria meningitidis 961-5945, UniProt Q6VS19, strain) (assay: SPR). Conditions: both partners purified.
T6 construct: also called fHbp v2.16; fHbp v2; source: E. coli BL21(DE3), purified (Ni-NTA; SEC when necessary)
For B3, the koff was 0.00079 s⁻¹ and the kon was 630000 M⁻¹ s⁻¹. Binder B14 has a koff of 0.00045 s⁻¹ and a kon of 270000 M⁻¹ s⁻¹. Binder B4 has a koff of 3.3e-05 s⁻¹ and a kon of 1.16e+06 M⁻¹ s⁻¹. Work on B5 yielded a koff of 7.98e-05 s⁻¹ and a kon of 2.73e+06 M⁻¹ s⁻¹. Work on B6 yielded a koff of 3.89e-05 s⁻¹ and a kon of 741000 M⁻¹ s⁻¹. For B7, the Kd was 0.0451 nM, the koff was 0.000706 s⁻¹ and the kon was 1.57e+07 M⁻¹ s⁻¹. Work on B8 yielded a koff of 0.00188 s⁻¹ and a kon of 690000 M⁻¹ s⁻¹. B9 gave a koff of 0.000689 s⁻¹ and a kon of 1.31e+07 M⁻¹ s⁻¹. For B10, the koff was 0.000345 s⁻¹ and the kon was 204000 M⁻¹ s⁻¹. B11 was tested, and the koff was 0.00264 s⁻¹ and the kon was 450000 M⁻¹ s⁻¹. In the case of B12, the koff is reported as 0.00478 s⁻¹ and the kon is reported as 382000 M⁻¹ s⁻¹. B13 showed a koff of 7.13e-06 s⁻¹ and a kon of 1.32e+06 M⁻¹ s⁻¹.
